From article PMC10732398 (PLOS Pathogens, 2023) come the findings set out here.

For one assay, the system named is CD4 D1D2. The experiment in a line: SPR cross-inhibition: ⍺4β7 binding to immobilized CD4 D1D2 after preincubation of the surface with CD4 mAbs. To be noted: surface preincubated with mAb, Fig 8C. An excerpt: Fig 8 Mutating a gp120 contact site in CD4 D1 abrogates CD4-⍺4β7 interactions. (A) Positions of amino acid substitutions introduced into D1D2-Ig⍺tp are indicated on a space-filling model of CD4 D1D2. Substitutions at S42/F43 in D1 (green) and K171 in D2 (purple) are shown. Approximate locations of mAb Leu3A and ibalizumab epitopes are indicated. (B) Flow-cytometric analysis of increasing amounts of D1D2-Ig⍺tp and mutant derivatives binding to ⍺4β7 on CD8^+ T cells. Y-axis indicates % cells bound. (C) SPR analysis of soluble ⍺4β7 binding to a D1D2 coated surface following preincubation of the surface with ibalizumab (red), mAb Leu3A (light green), or ⍺4β7 (dark green). Y-axis indicates the mass of soluble ⍺4β7 bound at the end of the association phase. Mass of prebound inhibitors is subtracted. (D) Flow-cytometric analysis of unlabeled gp120 inhibiting PE labeled D1D2-Ig⍺tp binding to ⍺4β7 on CD8^+ T cells. The integrin ⍺4 antagonist FG was employed as a control. Y-axis indicates MFI.
Experiments were performed using a Biacore 3000 instrument (Cytiva Life Sciences) using CM4 or CM5 sensor chips. The data were evaluated using BIAevaluation 4.1.1 software (Cytiva Life Sciences). […] The ability of each analyte to inhibit either itself or ⍺4β7 was determined by comparing the binding of ⍺4β7 in the absence or presence of the listed pre-bound analytes as previously described. […]

The subject of assay [1] is ⍺4β7 on RPMI8866 cells. The experiment in a line: Flow cytometry: D1D2-Ig⍺tp staining of RPMI8866 cells with ⍺4 and β7 antagonists. The assay is classed as binding, human. The note with it: antagonist at 10 μg/ml, 1 mM MnCl2. An excerpt: (§1) Several mAbs and small molecule antagonists of ⍺4β7 and ⍺4β1 have been developed to treat diseases, including IBD and MS. […] Vedolizumab and etrolizumab are β7 mAbs, based on murine mAbs Act-1 and FIB504, respectively. Both are used to treat IBDs, [50, 51]. Natulizumab is an ⍺4 specific humanized version of the mouse mAb HP2/1 used to treat Multiple Sclerosis (MS). […] To determine whether these antagonists block CD4 binding to α4β7, we stained RPMI8866 cells with D1D2-Ig⍺tp in the absence or presence of increasing concentrations of each (Fig 3).
(§2) Y-axis indicates gMFI. Dashed and solid lines represent gMFI of D1D2-Ig⍺tp and MAdCAM-Ig respectively, in the absence of any antagonist.
(§3) Cells were stained with fluoresceine conjugated mAbs or recombinant proteins using standard procedures preceded by Fc receptor blocking with human IgG. Buffers used were 10 mM HEPES 150 mM NaCl (HBS Buffer) with 100 μM CaCl2. 1 mM MnCl2 was also included, unless otherwise specified.
(In flow cytometry, cells or beads pass a laser one at a time.)

Assay [2] concerns ⍺4β7 on RPMI8866 cells. The experiment in a line: Flow cytometry: MAdCAM-Ig staining of RPMI8866 cells with ⍺4 and β7 antagonists. It counts as binding, human. To be noted: antagonist at 1 μg/ml.
Excerpt: as §1, §2, §3

For assay [3], the system named is ⍺4β7 on primary CD8^+ T cells. The assay is described as follows: Flow cytometry: FAM-conjugated pCD4^165-178 binding to RA-treated primary CD8^+ T cells. More on the design: species or system human. To be noted: FAM-Ttds-labelled peptide 1.25 μg/200,000 cells in 100 μl; MnCl2; 3 independent experiments. An excerpt:
To further investigate the interaction between pCD4^165-178 and ⍺4β7 we attached a fluorescein dye to its amino terminus via a trioxatridecan-succinamic acid (Ttds) linker (Fig 5A). A scrambled pCD4^165-178 was employed as a control. […] FIB504 and vedolizumab inhibited binding by ~50%. This inhibition pattern resembles the one we obtained when inhibiting D1D2-Ig⍺tp with the same antagonists (Fig 3). We conclude that the CD4 D2 G β-strand binds directly to the headpiece region of ⍺4β7 in a cation dependent manner. Support for this conclusion, in the form of site directed mutagenesis within the D2 G β-strand is provided below.
Fig 5 Direct binding of pCD4^165-178 to ⍺4β7 on primary T cells. (A) Sequence of FAM -conjugated pCD4^165-178 and a scrambled derivative (FAM-scr pCD4^165-178). (B) Flow-cytometry derived histogram of pCD4^165-178 binding to RA -cultured CD8^+ T cells. pCD4^165-178 in the presence (green), or absence of Mn^++(black). Unstained cells are shown (grey). (C) Binding of pCD4^165-178 and its scrambled derivative to CD8^+ T cells in the presence of MnCl2 as in panel B, and in the presence of ⍺4 and ⍺4β7 antagonists, as indicated. Y-axis indicates % cells bound. Error bars represent standard error from 3 independent experiments.
Cells were stained with fluoresceine conjugated mAbs or recombinant proteins using standard procedures preceded by Fc receptor blocking with human IgG. Buffers used were 10 mM HEPES 150 mM NaCl (HBS Buffer) with 100 μM CaCl2. 1 mM MnCl2 was also included, unless otherwise specified. Buffer without divalent cations included 0.1 mM EDTA. Unlabeled mAb or protein inhibitors were preincubated with cells or proteins at a 5X molar excess for 15 min on ice. FAM labeled peptides were used at 1.25 μg/ 200,000 cells in a 100 μl volume. Data were acquired using a FACSCanto II (BD Biosciences) and analyzed with FlowJo software (BD Biosciences). Plotted MFI values represent absolute values.

In the next assay the test system is ⍺4β7. The assay is described as follows: SPR binding kinetics: recombinant ⍺4β7 passed over ligand-coated surfaces (S1 Table). To be noted: SPR Biacore 3000, ligand immobilized, ⍺4β7 analyte, HBS pH 7.4, 1 mM MnCl2, 25°C. The protocol:
To measure the specific affinity of CD4–⍺4β7 interactions we developed a surface plasmon resonance (SPR) -based assay in which recombinant ⍺4β7 was passed over a surface coated with a 23 kD D1D2 protein (aa 1–183). For comparison we prepared surfaces with recombinant MAdCAM-Ig, VCAM-Ig, monomeric gp120, and a SOSIP env trimer (S1 Table). Assays were carried out in the presence of MnCl2 to present ⍺4β7 in an active conformation. […] This rate of dissociation was similar to that of both MAdCAM-Ig and VCAM-Ig with ⍺4β7 and is indicative of a relatively high-affinity interaction.
Experiments were performed using a Biacore 3000 instrument (Cytiva Life Sciences) using CM4 or CM5 sensor chips. The data were evaluated using BIAevaluation 4.1.1 software (Cytiva Life Sciences). The chip surface was activated by injecting 35 μl of a 1:1 mixture of 0.05 M N-hydroxysuccinimide and 0.2 M N-ethyl-N-(dimethylaminopropyl) carbodiimide at 5 μl/min. NeutrAvidin, HIV gp120, sCD4 (D1D2) or Hu-MAdCAM-Ig (R&D Systems) at concentrations of 5 μg/ml in 10mM NaOAc, pH 4.5, were immobilized to 250–750 resonance units (RU). After the proteins were immobilized to the desired densities, unreacted sites were blocked with 35 μl of 1 M Tris-HCl (pH 8.0). Biotinylated cyclic V2 peptides (1 μg/ml in 20 mM Tris-HCl, pH 8.0) were bound to the NeutrAvidin surfaces to densities of approximately 250–300 RU. One surface was activated and blocked without ligand as a control surface for non-specific binding. Signal from the control surface was subsequently subtracted. Running buffer was HBS (pH 7.4), 1 mM MnCl2, 0.005% Tween- 20, 0.05% soluble carboxymethyl-dextran. Binding experiments were carried out at a flow rate of 25 μl/min at 25°C. After a 2 min injection, the surface was washed for an additional 2 min in running buffer allowing dissociation of the bound ligand from the surface. The surfaces were regenerated by multiple injections of 4.5 M MgCl2 at a flow rate of 100 μl/min. Inhibition of ⍺4β7 binding by linear V2-loop and CD4 derived peptides was carried out by pre-incubating ⍺4β7 with the peptides in running buffer at the indicated concentrations for 2 hours at room temperature prior to passing them over the prepared surfaces as described above. Cross-inhibition experiments were performed by passing either buffer or the listed analytes over a surface to which sCD4 (D1D2) had been immobilized, followed by a secondary sequential injection of ⍺4β7. The ability of each analyte to inhibit either itself or ⍺4β7 was determined by comparing the binding of ⍺4β7 in the absence or presence of the listed pre-bound analytes as previously described. Illustration of the dynamic range of range of linear peptide inhibition assays is provided in S4 Fig.
On the technique in general: Surface plasmon resonance follows binding to a sensor surface in real time, without labels.

Assay [4] has as its system ⍺4β7 on RPMI8866 cells. The experiment in a line: Flow cytometry: ligand staining of ⍺4β7-expressing cells in buffers with different divalent cations. It counts as binding, human. To be noted: absence of divalent cations (0.1 mM EDTA). An excerpt: Fig 1 Binding of soluble CD4 to ⍺4β7 on CD4^+ T cells. (A) Schematic of D1D2-Ig⍺tp. (B) Flow-cytometry histogram of PE-conjugated D1D2-Ig⍺tp staining of CD4^+ T cells alone (blue) or in the presence of either the anti ⍺4 mAb 2B4 (green) or an irrelevant mAb (black-dashed). Cells stained with PE-conjugated MicA-Ig⍺tp (red), along with unstained cells (grey) are included. X-axis indicates geometric mean fluorescence intensity (gMFI). (C) 293T cells untransfected or co-transfected with ⍺4 and β7 expression vectors stained with either PE-D1D2-Ig⍺tp or PE-MAdCAM-Ig in the absence or presence of the ⍺4 antagonist FG. Y-axis indicates gMFI. (D) CD4^+ T cells stained with anti CD45RO (x-axis) anti β7 (y-axis) (left), or with anti CD45RO (x-axis) and D1D2-Ig⍺tp (y-axis) (right). % cells in each quadrant, as indicated. (E) CD4^+ T cells stained as in B, with lower MW forms of oligomerized D1D2-Ig⍺tp. Left Y-axis indicates gMFI (bars), right Y-axis indicates relative MW (kDa) (•). […]
Cells were stained with fluoresceine conjugated mAbs or recombinant proteins using standard procedures preceded by Fc receptor blocking with human IgG. […] Data were acquired using a FACSCanto II (BD Biosciences) and analyzed with FlowJo software (BD Biosciences). […]

The test system of assay [5] is ⍺4β7 on RPMI8866 cells. The experiment in a line: Flow cytometry: cross-inhibition of MAdCAM-Ig, VCAM-Ig and D1D2-Ig⍺tp binding to RPMI8866 cells. Also noted: species or system human. The note with it: increasing concentrations of unlabeled inhibitor, Fig 2C, 2D. The protocol: Cis interactions between various integrins and leukocyte receptors are known to regulate immune cell functions. To determine whether CD4 inhibits MAdCAM-1 or VCAM-1 binding to ⍺4β7 we preincubated RPMI8866 cells with labelled MAdCAM-Ig or VCAM-Ig in the presence of increasing concentrations of unlabeled D1D2-Ig⍺tp. […] This implies that MAdCAM-1 and VCAM-1, acting in trans, may interfere with CD4-⍺4β7 interactions. What remains unknown is whether interactions between ⍺4β7 and CD4 impact CD4 migration into the TCR and subsequent interactions with MHC II (Fig 2E).
Fig 2 Cross-inhibition of MAdCAM-Ig, VCAM-Ig and D1D2-Ig⍺tp binding to ⍺4β7. Flow cytometric analysis of (A) PE -conjugated MAdCAM-Ig or (B) PE -conjugated VCAM-Ig binding to RPMI8866 cells pre-incubated with increasing concentrations of unlabeled D1D2-Igαtp. Cell preincubated with increasing concentrations of (C) unlabeled MAdCAM-Ig or (D) VCAM-Ig followed by PE -conjugated D1D2-Ig⍺tp. Y-axis indicates gMFI. Dashed line indicates gMFI in the absence of any inhibitor.
Cells were stained with fluoresceine conjugated mAbs or recombinant proteins using standard procedures preceded by Fc receptor blocking with human IgG. Buffers used were 10 mM HEPES 150 mM NaCl (HBS Buffer) with 100 μM CaCl2. […] Data were acquired using a FACSCanto II (BD Biosciences) and analyzed with FlowJo software (BD Biosciences). […]

For Ibalizumab: CD4 D2 mAb, the “inhibition of ⍺4β7 binding to surface immobilized CD4 D1D2 (in words)” value in the assay on CD4 D1D2 was “failed to inhibit”.

For the molecule “Vedolizumab: β7 mAb based on murine mAb Act-1”, in the assay with ⍺4β7 on RPMI8866 cells [1], the “reduction of D1D2-Ig⍺tp binding” value was ~ 50%. Moreover, in the assay on ⍺4β7 on RPMI8866 cells [2], the “inhibition of MAdCAM-Ig binding (in words)” value is reported as “blocked MAdCAM-Ig efficiently”. The “reduction of pCD4^165-178 binding to CD8^+ T cells” value in assay [3] was ~ 50%.

B1: VCAM-Ig: recombinant VCAM-1 Ig fusion, R&D Systems (protein)
chain: FKIETTPESRYLAQIGDSVSLTCSTTGCESPFFSWRTQIDSPLNGKVTNEGTTSTLTMNPVSFGNEHSYLCTATCESRKLEKGIQVEIYSFPKDPEIHLSGPLEAGKPITVKCSVADVYPFDRLEIDLLKGDHLMKSQEFLEDADRKSLETKSLEVTFTPVIEDIGKVLVCRAKLHIDEMDSVPTVRQAVKELQVYISPKNTVISVNPSTKLQEGGSVTMTCSSEGLPAPEIFWSKKLDNGNLQHLSGNATLTLIAMRMEDSGIYVCEGVNLIGKNRKEVELIVQEKPFTVEISPGPRIAAQIGDSVMLTCSVMGCESPSFSWRTQIDSPLSGKVRSEGTNSTLTLSPVSFENEHSYLCTVTCGHKKLEKGIQVELYSFPRDPEIEMSGGLVNGSSVTVSCKVPSVYPLDRLEIELLKGETILENIEFLEDTDMKSLENKSLEMTFIPTIEDTGKALVCQAKLHIDDMEFEPKQRQSTQTLYVNVAPRDTTVLVSPSSILEEGSSVNMTCLSQGFPAPKILWSRQLPNGELQPLSENATLTLISTKMEDSGVYLCEGINQAGRSRKEVELIIQVTPKDIKLTAFPSESVKEGDTVIISCTCGNVPETWIILKKKAETGDTVLKSIDGAYTIRKAQLKDAGVYECESKNKVGSQLRSLTLDVQGRENNKDYFSPE
modifications: left off: Ig (Fc, from the name VCAM-Ig), end not stated, kept
notes: recombinant VCAM-1 Ig fusion, R&D Systems
Regarding B1, in the assay with ⍺4β7, the KA is 2.76e+07 M⁻¹, the ka worked out at 38700 M⁻¹ s⁻¹ and the kd is 0.00141 s⁻¹. In the assay with ⍺4β7 on RPMI8866 cells [4], the “binding to ⍺4β7 (in words)” value is reported as “failed to bind”. Besides, the “inhibition of PE-conjugated D1D2-Ig⍺tp binding to ⍺4β7 (in words)” value in the assay with ⍺4β7 on RPMI8866 cells [5] is “inhibited D1D2-Ig⍺tp binding to ⍺4β7 in a dose dependent manner”.
